Our source for the binding signal (a.u. absorbance) values is US20220243196.

For data set [1], the system named is Hantavirus (serum containing virus; nuclear protein) (Hantavirus). The experiment in a line: ELONA.
The subject of data set [2] is Influenza A virus (serum containing virus) (Influenza A virus). The experiment in a line: ELONA.

“ATCCAGAGTGACGCAGCACACATCGGAGAACAGGCGCACTGTCGGAGGAACCGCAACGTGGACACGGTGGCTTAGT [biotin-aptamer 3]”: the binding signal (a.u. absorbance) in data set [1] and in data set [2] was 0.1 in each case.
